Experimental data: paper PMC10571083, “An Analysis of Nucleotide–Amyloid Interactions Reveals Selective Binding to Codon-Sized RNA”
No end group written: not given here.

Tests used:
[1] = tested on: peptide 7 amyloid (designed); assay: pelleting/HPLC; conditions: citrate-phosphate buffer, pH 3 (or pH series), room temperature, overnight, 100 uM peptide with 25 or 50 uM oligo, Kd: 50 uM peptide with 5-200 uM oligo …
[2] = tested on: peptide 4 amyloid (designed); assay: pelleting/HPLC; conditions: pH 3, 100 uM peptide, 50 uM RNA; citrate-phosphate buffer, pH 3 (or pH series), room temperature, overnight, 100 uM peptide with 25 or 50 uM oligo; Kd: 50 uM peptide with 5-200 uM oligo …
VAQAQINI-NH2 amyloid = target: T1, VAQAQINI-NH2 amyloid (designed); assay: pelleting/HPLC; Bmax 0.147; citrate-phosphate buffer, pH 3 (or pH series), room temperature, overnight, 100 uM peptide with 25 or 50 uM oligo; Kd: 50 uM peptide with 5-200 uM oligo; supern; conditions: single strand
T1 chain: VAQAQINI-NH2

**Q.** Which results are given for GUGUGUG [[GU]3G]?
**A.** Kd [1]: 48.6 nM; binding signal [2]: 100 % bound

**Q.** For GUG [DNA pGUG], which Kd ([1]; 5' phosphate, DNA backbone (printed with U)) is on record?
**A.** 117000 nM

**Q.** Which results are given for GUG [pGUG]?
**A.** Kd ([1]; 5' phosphate): 82000 nM; binding signal ([1]; pH 3, 100 uM peptide, 25 uM RNA, peptide 7 or 9 not specified, 5' phosphate): > 40 % bound

**Q.** GUGUGU [[GU]3] was tested. Which Kd [1] did it give?
**A.** 856 nM

**Q.** Which Kd ([1]; 5' phosphate) does the source give for GUGUG [pGUGUG] here?
**A.** 74.9 nM

**Q.** How did the Kd ([1]; 5' phosphate) turn out when GUGU [pGUGU] was run?
**A.** 1290 nM

**Q.** GUCA (ssRNA, 5' and 3' phosphate) [pGUCAp] was tested. Which Kd (VAQAQINI-NH2 amyloid) did it give?
**A.** 1950 nM
